How the values were obtained:
NprE = target: T1, NprE (Bacillus amyloliquefaciens, UniProt P06832); test: Remaining AGLA activity of NprE stability assay samples in DW-CT HDL detergent formulation; assay type: biochemical; settings: no inhibitor; 2 mg/mL NprE incubated in HDL detergent formulation DW-CT, 32° C.
T1 construct: made in house; host or cells: Bacillus subtilis
Protocol: The HDL detergent formulation used in this example was: DW-CT. This formulation has a 37% water content and was designed to make up to 90% by volume with 10% room (by volume) to add ingredients such as stabilizers or enzymes.
Assays were carried out using a 10% DW-CT detergent formulation made by mixing 5 mL of DW-CT (prepared as in Table 1), 1 mL of 500 mM HEPES at pH 8.0, and 44 mL distilled water.
Stability assay samples were prepared using five different candidate protein hydrolysates, as well as a control with no inhibitor added.
In general, 20 μL of inhibitor stock solution was pre-mixed with 10 μL of 50 mg/mL NprE stock solution. Then, 220 μL of 10% DW-CT detergent formulation in 10 mM HEPES was added to each sample so that the final NprE concentration was 2 mg/mL. Samples were incubated at 32° C. in a microtiter plate in a Thermomixer (Eppendorf).
The final concentration of enzyme in each sample was 2 mg/mL NprE. The final inhibitor concentrations in their respective samples were: 5.6 mg/mL of Amisoy, Amicase, HyPep 4601, or Proteose Peptone, respectively; or 7.2 mM of the casein hydrolysis product mixture (based on 12.5-fold dilution). […]
Remaining NprE activity of each of stability assay samples (prepared as above) was measured at various time points using the general AGLA activity assay except that the assay solution used was 50 mM MES, 2.5 mM CaCl2, 0.005% Tween 80 at pH 6.5.

[1] = in the presence of zinc ion concentrations lower than 15 mM; cited from earlier work
[2] = NprE stability at different storage concentrations (AGLA activity over time); assay type: physicochemical
Protocol: Samples were prepared containing the neutral metalloprotease, NprE, at a range of concentrations from 625 to 10000 ppm in 10 mM HEPES (N-(2-Hydroxyethyl)piperazine-N′-(2-ethanesulfonic acid)) buffer at pH 8.0. All samples, except the one control at 625 ppm NprE concentration, included 10% PPG and 0.5 mM CaCl2. All samples were incubated at a temperature of 32° C. over a period of 6 hours. NprE activity of the samples was measured using the AGLA activity assay at various time points.

T1 sequence (P06832 222-521): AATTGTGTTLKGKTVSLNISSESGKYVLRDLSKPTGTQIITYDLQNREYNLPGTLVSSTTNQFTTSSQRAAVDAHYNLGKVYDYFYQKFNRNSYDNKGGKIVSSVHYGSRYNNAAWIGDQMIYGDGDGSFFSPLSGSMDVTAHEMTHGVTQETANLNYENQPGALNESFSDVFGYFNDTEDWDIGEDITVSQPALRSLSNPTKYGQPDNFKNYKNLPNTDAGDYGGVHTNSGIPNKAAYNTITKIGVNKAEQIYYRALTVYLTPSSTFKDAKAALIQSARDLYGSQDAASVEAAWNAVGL

For “NprE: recombinant neutral metalloprotease: Bacillus amyloliquefaciens neutral metalloprotease cloned into Bacillus subtilis”, the “loss of original NprE activity in about an hour” value (NprE) is listed as “more than 80%”, the “stability period under detergent formulation conditions” value [1] is listed as “approximately 4 weeks” and the “NprE activity maintained for 1.5 hours” value ([2]; 10,000 μg/mL (or ppm) NprE, 10% PPG, 0.5 mM CaCl2, 10 mM HEPES pH 8.0, 32° C.) is listed as “almost full activity”. For the same substance, the “NprE activity at 1.5 hr” value ([2]; 625, 1250 and 2500 ppm NprE, 10% PPG, 0.5 mM CaCl2, 10 mM HEPES pH 8.0, 32° C.) was roughly 60% and the “NprE activity over time, control sample” value ([2]; 625 ppm NprE, no added PPG or CaCl2, 10 mM HEPES pH 8.0, 32° C.) was “lost nearly all of its activity within the first 2 hours”.
